15 molecules from patent US20040230039A1 (YEDA RESEARCH AND DEVELOPMENT, published 2004) can be followed below.

B1: MACHβ1 (ORF-B of MACH) (other, human, UniProt Q14790-5 1-235, looked up)
chain: MDFSRNLYDIGEQLDSEDLASLKFLSLDYIPQRKQEPIKDALMLFQRLQEKRMLEESNLSFLKELLFRINRLDLLITYLNTRKEEMERELQTPGRAQISAYRVMLYQISEEVSRSELRSFKFLLQEEISKCKLDDDMNLLDIFIEMEKRVILGEGKLDILKRVCAQINKSLLKIINDYEEFSKERSSSLEGSPDEFSNDFGQSLPNEKQTSGILSDHQQSQFCKSTGESAQTSQH
notes: Gal4 hybrid in yeast; also expressed in mammalian cells (34 kDa); also called MACH B; MACH ORF-B
B2: MACHα1 (C360S) (enzyme)
chain: MDFSRNLYDIGEQLDSEDLASLKFLSLDYIPQRKQEPIKDALMLFQRLQEKRMLEESNLSFLKELLFRINRLDLLITYLNTRKEEMERELQTPGRAQISAYRVMLYQISEEVSRSELRSFKFLLQEEISKCKLDDDMNLLDIFIEMEKRVILGEGKLDILKRVCAQINKSLLKIINDYEEFSKERSSSLEGSPDEFSNGEELCGVMTISDSPREQDSESQTLDKVYQMKSKPRGYCLIINNHNFAKAREKVPKLHSIRDRNGTHLDAGALTTTFEELHFEIKPHDDCTVEQIYEILKIYQLMDHSNMDCFICCILSHGDKGIIYGTDGQEAPIYELTSQFTGLKCPSLAGKPKVFFIQASQGDNYQKGIPVETDSEEQPYLEMDLSSPQTRYIPDEADFLLGMATVNNCVSYRNPAEGTWYIQSLCQSLRERCPRGDDILTILTEVNYEVSNKDDKKNMGKQMPQPTFTLRKKLVFPSD
notes: Gal4 hybrid in yeast; also called MACHα(C360S)
B3: MORT-1 (FADD), human, full-length (other, UniProt Q13158 1-208, looked up)
chain: MDPFLVLLHSVSSSLSSSELTELKFLCLGRVGKRKLERVQSGLDLFSMLLEQNDLEPGHTELLRELLASLRRHDLLRRVDDFEAGAAAGAAPGEEDLCAAFNVICDNVGKDWRRLARQLKVSDTKIDSIEDRYPRNLTERVRESLRIWKNTEKENATVAHLVGALRSCQMNLVADLVQEVQQARDLQNRSGAMSPMSWNSDASTSEAS
notes: Gal4 hybrid in yeast; also expressed in mammalian cells; also called HF1
B8: human p55-IC (intracellular domain of human p55 TNF receptor, residues 206-426) (receptor, UniProt P19438 235-455, looked up)
chain: RYQRWKSKLYSIVCGKSTPEKEGELEGTTTKPLAPNPSFSPTPGFTPTLGFSPVPSSTFTSSSTYTPGDCPNFAAPRREVAPPYQGADPILATALASDPIPNPLQKWEDSAHKPQSLDTDDPATLYAVVENVPPLRWKEFVRRLGLSDHEIDRLELQNGRCLREAQYSMLATWRRRTPRREATLELLGRVLRDMDLLGCLEDIEEALCGPAALPPAPSLLR
notes: range 206-426; Gal4 hybrid in yeast; Numbering as printed; may count on the mature receptor; also called 206-426 p55; intracellular domain of human p55-R (CD120a)

The test system of series [1] is T1, Acetyl-Asp-Glu-Val-Asp-a-(4-Methyl-Coumaryl-7-Amide).
T1 sequence: DEVD

Series [2] deals with T2, Acetyl-Tyr-Val-Ala-Asp-AMC.
T2 sequence: YVAD

Series [3] has as its target T3, MACHα1 (human, UniProt Q14790 1-479).
T3 construct: also called CASP-8α1
The series can be described thus: yeast two-hybrid test. An excerpt: (§1) Except where otherwise indicated, all experimental procedures for the findings presented are as described above (see also Boldin et al., 1995).

For series [4], the target named is B2. Kind of series: yeast two-hybrid test.
Source text: as §1

Series [5] concerns the molecule itself. Kind of series: yeast two-hybrid beta-galactosidase filter assay; activation-domain hybrid against DNA-binding-domain hybrid (row); + = strong color within 90 min.
Experimental: The DNA-binding domain constructs were prepared in pGBT9 vectors and the activation domain constructs were prepared in pGAD-GM vectors. […] In the assay, the development of color was determined, where the greater the color development, the greater the interaction between the constructs encoded by the DNA-binding domain and activation domain.
Series [6] concerns the molecule itself. Kind of series: yeast two-hybrid test.
Source text: as §1

Series [7] deals with B8. Kind of series: yeast two-hybrid beta-galactosidase test. Here is the method: (§2) The interaction of the proteins encoded by the Gal4 DNA binding domain and activation-domain constructs (pGBT9 and PGAD-GH) within transfected SFY526 yeasts was assessed by β-galactosidase expression filter assay. […] The intracellular domains of human p55 TNF receptor (p55-IC residues 206-426), human CD40 (CD40-IC, residues 216-277) and human p75 TNF receptor (p75-IC, residues 287-461) as well as lamin, cyclin D and “empty” Gal4 (pGBT9) vectors served as negative controls in the form of DNA-binding domain constructs. SNF-1 and SNF4 served as positive controls in the form of DNA-binding-domain (SNF1) and activation-domain (SNF4) constructs. “Empty” Gal4 vectors (pGAD-GH) also served as negative controls in the form of activation domain constructs. The symbols “++” and “+” used in the presentation of the results of the above analysis denote the development of strong color within 30 and 90 min of the assay, respectively; and “−” denotes no development of color within 24 h.

In series [8] the target is T4, TRADD (human, UniProt Q15628 1-312, limits assumed).
T4 construct: Gal4 hybrid in yeast
T4 sequence (looked up): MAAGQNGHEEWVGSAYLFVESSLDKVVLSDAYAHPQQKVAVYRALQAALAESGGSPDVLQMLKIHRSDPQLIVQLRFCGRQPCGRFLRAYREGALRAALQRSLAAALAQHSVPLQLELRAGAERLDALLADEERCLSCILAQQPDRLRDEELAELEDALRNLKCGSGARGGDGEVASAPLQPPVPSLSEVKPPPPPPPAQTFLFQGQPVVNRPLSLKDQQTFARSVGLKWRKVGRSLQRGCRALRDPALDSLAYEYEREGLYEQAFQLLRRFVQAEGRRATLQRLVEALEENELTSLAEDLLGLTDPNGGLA
Kind of series: yeast two-hybrid screen of a human B cell library with MORT-1 as bait.

Series [9] has as its target T5, MORT-1 (FADD), human, full-length (human), Q13158.
T5 chain: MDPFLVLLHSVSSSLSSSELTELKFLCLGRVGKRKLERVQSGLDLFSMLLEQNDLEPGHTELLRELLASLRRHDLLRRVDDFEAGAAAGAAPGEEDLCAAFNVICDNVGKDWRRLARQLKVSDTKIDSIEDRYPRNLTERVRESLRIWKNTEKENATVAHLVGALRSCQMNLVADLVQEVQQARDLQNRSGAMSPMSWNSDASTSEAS
The series can be described thus: yeast two-hybrid beta-galactosidase filter assay; activation-domain hybrid against DNA-binding-domain hybrid (row); +++ = strong color within 30 min. The note with it: remark: other sources report otherwise.

In series [10] the target is B3. Kind of series: yeast two-hybrid beta-galactosidase test. Here is the method:
as §2

For series [11], the target named is T6, FLAG-MORT-1 (UniProt Q13158 1-208).
T6 construct: Expressed and 35S-labeled in HeLa cells; yielded proteins of about 27, 28, 32 and 34 kD; also called MORT-1-FLAG fusion protein; not shown: FLAG octapeptide (Eastman Kodak), N-terminal
T6 sequence (looked up): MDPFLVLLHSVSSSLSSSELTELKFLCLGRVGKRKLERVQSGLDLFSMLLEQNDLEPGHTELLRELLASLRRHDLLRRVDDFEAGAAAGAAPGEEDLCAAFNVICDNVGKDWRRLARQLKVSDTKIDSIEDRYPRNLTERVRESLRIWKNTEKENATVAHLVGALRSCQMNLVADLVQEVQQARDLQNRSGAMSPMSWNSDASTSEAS
The series can be described thus: in vitro binding of 35S-labeled FLAG-MORT-1 from HeLa extracts to GST fusion on glutathione beads, SDS-PAGE and autoradiography. As for the experimental part: Glutathione S-transferase (GST) fusions with the wild type or a mutated Fas-IC were produced and adsorbed to glutathione-agarose beads; see Boldin et al., 1995; Current Protocols in Molecular Biology, 1994; Frangioni and Neel, 1993). […] The extracts were prepared in a buffer containing 50 mM Tris-HCl, pH 7.5, 150 mM NaCl, 0.1% NP-40, 1 mM dithiotreitol, 1 mM EDTA, 1 mM phenylmethylsulfonyl fluoride, 20 μg/ml Aprotonin, 20 μg/ml Leupeptin, 10 mM sodium fluoride and 0.1 mM sodium vanadate (1 ml per 5×10⁵ cells).

In series [12] the target is B1. Kind of series: yeast two-hybrid beta-galactosidase filter assay. Here is the method:
(§3) Their interaction was assessed by a β-galactosidase expression filter assay as described in Boldin et al., (1995b). The results are presented in terms of the time required for the development of strong color. […] Except where otherwise indicated, all experimental procedures for the findings presented are as described above (see also Boldin et al., 1995).

The target in series [13] is T3, MACHα1. The series can be described thus: yeast two-hybrid beta-galactosidase filter assay. As for the experimental part:
as §3

The target of series [14] is B2. The series can be described thus: yeast two-hybrid beta-galactosidase filter assay. As for the experimental part: as §3

With “GST-fused MACH CED3/ICE-homology region with Cys360 replaced by Ser”, the “cleavage of fluorogenic peptide substrate (AMC release) by bacterial lysates” value (from here on “cleavage”) in series [1] was “No cleavage was observed”.
In the case of “GST fusion of the CED3/ICE homology region of MACHα1 (Ser217 through the C-terminus)”, the “cleavage” value in series [1] is “cleaved effectively the PARP sequence-derived fluorogenic substrate”; in series [2], “They had no measurable proteolytic activity, though, against the IL-1β-precursor sequence-derived fluorogenic substrate”.
Regarding GST fusion of the full-length MACHα1, the “cleavage” value in series [1] is recorded as “did not cleave Ac-DEVD-AMC”.
Still for that read-out and setting: in the case of “GST fusion of MACHα1 Asp374 through the C-terminus” it was “Nor did cleavage occur”; in that of GST fusion of MACHα1 Ser217 till Asp374, “Nor did cleavage occur”.
Turning to B1, the binding result in series [3], in [4] and in series [5] was “binds” throughout.
Consider B2, for which the binding result in [6] is on record as “binds”.
Turning to B3, the results for the binding result in [7] and in series [8] were “no binding” and “binds”, respectively. The time to development of strong color (beta-galactosidase filter assay, yeast two-hybrid) in series [9] is under 30 min.

B4: mouse Fas-IC (receptor, UniProt P25446 187-327, looked up)
chain: RKYRKRKCWKRRQDDPESRTSSRETIPMNASNLSLSKYIPRIAEDMTIQEAKKFARENNIKEGKIDEIMHDSIQDTAEQKVQLLLCWYQSHGKSDAYQDLIKGLKKAECRRTLDKFQDMVQKDLGKSTPDTGNENEGQCLE
notes: domain: intracellular domain
In the case of B4, in series [10], the binding result is recorded as “binds”.

B5: GST-mFas-IC (receptor, mouse, UniProt P25446 187-327, looked up)
chain: RKYRKRKCWKRRQDDPESRTSSRETIPMNASNLSLSKYIPRIAEDMTIQEAKKFARENNIKEGKIDEIMHDSIQDTAEQKVQLLLCWYQSHGKSDAYQDLIKGLKKAECRRTLDKFQDMVQKDLGKSTPDTGNENEGQCLE
notes: domain: intracellular domain; Produced in E. coli, attached to glutathione beads; also called GST fusion with the mouse Fas-IC; not shown: glutathione S-transferase (GST) fusion partner
As for B5, the binding result in [11] is “binds”.

B6: mouse Fas-IC I225N (receptor, UniProt P25446 187-327, looked up)
chain: RKYRKRKCWKRRQDDPESRTSSRETIPMNASNLSLSKYIPRIAEDMTIQEAKKFARENNNKEGKIDEIMHDSIQDTAEQKVQLLLCWYQSHGKSDAYQDLIKGLKKAECRRTLDKFQDMVQKDLGKSTPDTGNENEGQCLE
notes: domain: intracellular domain; The text says 'Ile to Leu' but labels the mutant I225N; Position as printed; may count on the mature receptor; also called lprcg mutation
On to B6, for which the binding result in series [10] is reported as “no binding”.

B7: mouse Fas-IC I225A (receptor, UniProt P25446 187-327, looked up)
chain: RKYRKRKCWKRRQDDPESRTSSRETIPMNASNLSLSKYIPRIAEDMTIQEAKKFARENNAKEGKIDEIMHDSIQDTAEQKVQLLLCWYQSHGKSDAYQDLIKGLKKAECRRTLDKFQDMVQKDLGKSTPDTGNENEGQCLE
notes: domain: intracellular domain; Position as printed; may count on the mature receptor
On to B7, for which the binding result in series [10] is recorded as “no binding”.
As for B8, the binding result in [12], in series [13] and in [14] was “no binding” in each case.

B9: MORT-1 fragment residues 130-245 (MORT-1 DD) (other, human, UniProt Q13158 82-197, looked up)
chain: FEAGAAAGAAPGEEDLCAAFNVICDNVGKDWRRLARQLKVSDTKIDSIEDRYPRNLTERVRESLRIWKNTEKENATVAHLVGALRSCQMNLVADLVQEVQQARDLQNRSGAMSPMS
notes: Gal4 hybrid in yeast; expressed in HeLa cells for the cytotoxicity test; also called MORT 'tail'
Take B9: in [10], the binding result is given as “no binding”.

B10: GST-huFas-IC (receptor, human, UniProt P25445 191-335, looked up)
chain: KRKEVQKTCRKHRKENQGSHESPTLNPETVAINLSDVDLSKYITTIAGVMTLSQVKGFVRKNGVNEAKIDEIKNDNVQDTAEQKVQLLRNWHQLHGKKEAYDTLIKDLKKANLCTLAEKIQTIILKDITSDSENSNFRNEIQSLV
notes: domain: intracellular domain; Produced in E. coli, attached to glutathione beads; also called GST fusion with the human Fas-IC; GST-Fas-IC; not shown: glutathione S-transferase (GST) fusion partner
For the molecule B10, the binding result in [11] is listed as “binds”.
